*1 amine or outer side, *2 acyl side, *3 side chain or, on linkers, in order; H or OH if unused. Bridges are numbered along the chain shown (N, C = ends). Where no end group is shown, it is not given here. [ ]: non-standard residue; d: D form. The star is where a group is joined. TATA = O=C(CC[*:1])N1CN(C(=O)CC[*:2])CN(C(=O)CC[*:3])C1; Trp(1-Me) = Cn1cc(C[C@H](N)C(=O)O)c2ccccc21; Arg(Me2a) = CN(C)C(=N)NCCC[C@H](N)C(=O)O; Phe(4-F) = N[C@@H](Cc1ccc(F)cc1)C(=O)O; tBuAla = CC(C)(C)C[C@H](N)C(=O)O; NMeA = CN[C@@H](C)C(=O)O; Octanoyl = CCCCCCCC(=O)*
Each binder was assayed against T1, Biotinylated human TSLP (hTSLP(29-159)-Avi) (human, biotinylated (C-terminal Avi-tag)) (assay: SPR, biotinylated hTSLP on streptavidin chip, peptide injected).
T1 construct: also called thymic stromal lymphopoietin
T1 sequence (chain, as listed by the source limits assumed): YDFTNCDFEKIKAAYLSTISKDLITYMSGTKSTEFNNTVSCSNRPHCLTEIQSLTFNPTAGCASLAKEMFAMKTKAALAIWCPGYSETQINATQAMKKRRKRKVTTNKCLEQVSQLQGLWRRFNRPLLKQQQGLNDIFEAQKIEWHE

Kd [nM]	Binder
250	ACDWHWEYDCWLSCDPSSKQA (linker 2-10-14 via TATA) [Example 212]
100	AETCKWMWEYDCWLSCA (linker 4-12-16 via TATA) [Example 204]
320	CDWHWEYDCWLSCEPETGQ (linker 1-9-13 via TATA; not fully specified (C-terminus)) [Example 216]
340	ACDWDWDYDCWLPCFAE (linker 2-10-14 via TATA; not fully specified (C-terminus)) [Example 208]
2000	Ac-CDWHWEYDCWLSC (linker 1-9-13 via TATA; not fully specified (C-terminus)) [Example 218]
860	NRSPSECDWHWEYDCWLSC (linker 7-15-19 via TATA; not fully specified (C-terminus)) [Example 217]
740	CDWHWEYDCWLSCANSEFE (linker 1-9-13 via TATA; not fully specified (C-terminus)) [Example 227]

Continued, binder first:

Binder	Kd [nM]
SPTEPPCDWHWEYDCWLSC (linker 7-15-19 via TATA; not fully specified (C-terminus)) [Example 215]	240
ACDWNWTYDCWLDCAPI (linker 2-10-14 via TATA) [Example 206]	430
ANDCVWHWEYDCWLDCA (linker 4-12-16 via TATA; not fully specified (C-terminus)) [Example 220]	340
SNATKQCDWHWEYDCWLSCA (linker 7-15-19 via TATA; not fully specified (C-terminus)) [Example 210]	180
CDWHWEYDCWLSCYDNEMS (linker 1-9-13 via TATA; not fully specified (C-terminus)) [Example 223]	3000
ADGCEWNWAYDCWLGCA (linker 4-12-16 via TATA) [Example 201]	170
DEQHHECDWHWEYDCWLSCA (linker 7-15-19 via TATA; not fully specified (C-terminus)) [Example 209]	910
CDWHWEYDCWLSCGDMSVS (linker 1-9-13 via TATA; not fully specified (C-terminus)) [Example 222]	450
SQECQWNWTYDCWLGCA (linker 4-12-16 via TATA) [Example 203]	320

These binders were tested against TSLP (as used in the human PBMC assay) (UniProt Q969D9 29-159) (assay: cell-based or functional assay).

CCL17 % Inhibition @ 10 µM, 666 pM TSLP [%]	CCL17 % Inhibition @ 10 µM, 50 pM TSLP [%]	CCL17 % Inhibition @ 10 µM, 400 pM TSLP [%]	Binder
52	–	–	CQXLEDCXRGXC (not fully specified; Ac-CQ[TrpMe]LEDC[TrpMe]RG[4-FPhe]C; 3 Cys cyclised with TATA) [Example 16]
0	–	–	ACTWLDDCWRGFCA (linker 2-8-13 via TATA; not fully specified (C-terminus)) [Example 76]
0	–	–	ACRDLDPWTCSSWWLCA (linker 2-10-16 via TATA; not fully specified (C-terminus)) [Example 164]
–	58	64	Octanoyl-C[NMeA][Trp(1-Me)][tBuAla]QDC[Trp(1-Me)][Arg(Me2a)]G[Phe(4-F)]C-NH2 (linker 1-7-12 via TATA; SMILES CCCCCCCC(=O)N[C@H]1CSCCC(=O)N2CN3CN(C2)C(=O)CCSC[C@H](NC(=O)[C@H](CC(=O)O)NC(=O)[C@H](CCC(N)=O)NC(=O)[C@H](CC(C)(C)C)NC(=O)[C@H](Cc2cn(C)c4ccccc24)NC(=O)[C@H](C)N(C)C1=O)C(=O)N[C@@H](Cc1cn(C)c2ccccc12)C(=O)N[C@@H](CCCNC(=N)N(C)C)C(=O)NCC(=O)N[C@@H](Cc1ccc(F)cc1)C(=O)N[C@H](C(N)=O)CSCCC3=O) [Example 15]
40	–	–	TMEYRDCQWLEDCWRGFCA (linker 7-13-18 via TATA) [Example 56]
-4	–	–	SHVCRDLDPWTCDSWWLCA (linker 4-12-18 via TATA) [Example 188]
14	–	–	CQWLEDCWRGXC (Ac-CQWLEDCWRG[4-ClPhe]C; 3 Cys cyclised with TATA) [Example 14]
-11	–	–	SPPCVWLDDCWRGFCA (linker 4-10-15 via TATA) [Example 73]
0	–	–	GTDSAECQWLEDCWRGFCA (linker 7-13-18 via TATA) [Example 45]

Continued, binder first:

Binder	CCL17 % Inhibition @ 10 µM, 666 pM TSLP [%]	CCL17 % Inhibition @ 10 µM, 50 pM TSLP [%]	CCL17 % Inhibition @ 10 µM, 400 pM TSLP [%]
AHPCADLDPWTCPNWWLCA (linker 4-12-18 via TATA; not fully specified (C-terminus)) [Example 165]	33	–	–
ACDWHWEYDCWLSCEPETGQA (linker 2-10-14 via TATA) [Example 221]	-10	–	–
YATTQVCRDLDPWTCSSWWLCA (linker 7-15-21 via TATA) [Example 171]	36	–	–
DHDCTWNWEYDCWLDCA (linker 4-12-16 via TATA) [Example 200]	-42	–	–
Ac-CQW[tBuAla]EDCWRGFC (linker 1-7-12 via TATA; not fully specified (C-terminus); printed as Ac-CQW[tBuA]EDCWRGFC) [Example 44]	52	–	–
ACHWLEDCWRGFCHLE (linker 2-8-13 via TATA; not fully specified (C-terminus)) [Example 75]	-2	–	–
CQWLEDCWRGXC (not fully specified; Ac-CQWLEDCWRG[3,4diClPhe]C; 3 Cys cyclised with TATA) [Example 11]	43	–	–
ACTWLEDCWRGFCADS (linker 2-8-13 via TATA) [Example 63]	24	–	–
ACRDLDPWTCSSWWLCADGLYDA (linker 2-10-16 via TATA) [Example 193]	47	–	–
CQWLEDCWRGXC (not fully specified; Ac-CQWLEDCWRG[3-MePhe]C; 3 Cys cyclised with TATA) [Example 74]	43	–	–
CQWLEDCWRGXC (not fully specified; Ac-CQWLEDCWRG[Nal1]C; 3 Cys cyclised with TATA) [Example 47]	-7	–	–
CQWLEDCWRGXC (not fully specified; Ac-CQWLEDCWRG[Nal2]C; 3 Cys cyclised with TATA) [Example 50]	33	–	–
ACQWLEDCWRGFCA (linker 2-8-13 via TATA) [Example 68]	33	–	–
ACRDLDPWTCSSWWLCANV (linker 2-10-16 via TATA) [Example 186]	-1	–	–
ACQWLEDCWRGFCSSSDQS (linker 2-8-13 via TATA) [Example 59]	2	–	–
RAPCPDLDPWTCSDWWLCA (linker 4-12-18 via TATA) [Example 187]	11	–	–
Ac-ACQWLEDCWRGFCPLD (linker 2-8-13 via TATA) [Example 53]	-2	–	–
ACDWHWEYDCWLSCA (linker 2-10-14 via TATA) [Example 199]	-3	–	–
Ac-CQWLEDCWRGFC (linker 1-7-12 via TATA) [Example 79]	-18	–	–

From patent US20220363718A1 (Bicycle, published 2022)
